Reference: article PMC12049489

Assays:
Experiment in all cases: SPR
[1] = molecular target: anti-Aβ hIgG4 YEY (human)
[2] = molecular target: anti-BACE1 hIgG1 M252Y / Q311A / N434Y / Y436I (human)
[3] = molecular target: anti-BACE1 hIgG1 M252Y / Q311I / N434Y / Y436I (human)
[4] = molecular target: anti-BACE1 hIgG1 M252Y / T307Q / Q311A / N434Y (human)
[5] = molecular target: anti-BACE1 hIgG1 M252Y / V308P / N434Y (human)
[6] = molecular target: anti-BACE1 hIgG1 Q5 (M252Y / Q311I / N434Y / Y436I) (human)
[7] = molecular target: anti-BACE1 hIgG1 Q7 (M252Y / Q311A / N434Y / Y436I) (human)
M252F mIgG2a (mouse) = molecular target: M252F mIgG2a (mouse)
M252Y mIgG2a (mouse) = molecular target: M252Y mIgG2a (mouse)
[8] = molecular target: M252Y.Q309T mIgG2a (mouse)

Question: “cynomolgus monkey FcRn (from UniProt Q8SPV9 24-365) (receptor)” was tested. Which Kd [1] did it give?
Answer: 9 nM

Question: How did the Kd [2] turn out when “human neonatal Fc receptor (hFcRn) (from UniProt P55899 24-365; P61769 21-119)” was run?
Answer: 6 nM

Question: What about the Kd [3] of the same substance?
Answer: 252 nM

Question: What about the Kd [4] of the same substance?
Answer: 333 nM

Question: And the Kd [5]?
Answer: 127 nM

Question: What about the Kd [6] of the same substance?
Answer: 252 nM

Question: And the Kd [7]?
Answer: 6 nM

Question: With “mouse FcRn (from UniProt Q61559 22-365) (receptor)” as the substance, how does the Kd (M252F mIgG2a (mouse)) read?
Answer: 3320 nM

Question: And the Kd (M252Y mIgG2a (mouse))?
Answer: 826 nM

Question: What about the Kd [8] of the same substance?
Answer: 308 nM
